# Data reported in paper PMC8234197.
# Columns and labels:
# [1] = biological target: alkanesulfonate monooxygenase MsuD from Pseudomonas fluorescens (wildtype) (Pseudomonas fluorescens)
# [2] = biological target: alkanesulfonate monooxygenase MsuD from Pseudomonas fluorescens (wildtype) (Pseudomonas fluorescens); test: crystal structure; cocrystal with FMN and MS− (P6_1, four chains per asymmetric unit); unliganded and FMN- or FMN/MS−-soaked crystals (P2_1, two tetramers per asymmetric unit)
# [3] = biological target: alkanesulfonate monooxygenase MsuD from Pseudomonas fluorescens (wildtype) (Pseudomonas fluorescens); test: SEC; analytical gel filtration, Enrich SEC 650 10 × 300 column, 4 °C, 50 mM sodium phosphate, 150 mM NaCl, pH 7.2, with high-molecular-weight standards
# [4] = biological target: MsuD^ΔC–16 (MsuD with the last 16 residues of the C terminus deleted) (Pseudomonas fluorescens)
# [5] = biological target: MsuD^ΔC–16 (MsuD with the last 16 residues of the C terminus deleted) (Pseudomonas fluorescens); test: SEC; analytical gel filtration, Enrich SEC 650 10 × 300 column, 4 °C, 50 mM sodium phosphate, 150 mM NaCl, pH 7.2, with high-molecular-weight standards
"sulfite formation from MS− in a coupled reaction with MsuE (DTNB assay), wildtype under the conditions of the MsuD^ΔC–16 test (µmol/min/µmol enzyme) [1]",stoichiometry N [2],stoichiometry N [3],sulfite formation from MS− in a coupled reaction with MsuE (DTNB assay) (µmol/min/µmol enzyme) [4],stoichiometry N [5],Substance
5.7,4,4,–,–,alkanesulfonate monooxygenase MsuD from Pseudomonas fluorescens (wildtype) (enzyme)
–,–,–,0.45,2,MsuD^ΔC–16 (MsuD with the last 16 residues of the C terminus deleted) (domain or fragment)
